Test results published in US10570431B2, “Compositions comprising a polypeptide having cellulolytic enhancing activity and a heterocyclic compound and uses thereof” (priority 2013, dated 2020).
Like-named read-outs stand apart in the source and are kept apart here.

Experiments:
Format in all cases: biochemical
[1] = system: Trichoderma reesei cellulase composition; details: for heterocyclic compound effect(no GH61): milled washed PCS
[2] = system: Trichoderma reesei cellulase composition; details: for heterocyclic compound effect(no GH61): milled unwashed PCS, compound 5 mM; for Percent conversion of milled unwashed PCS: GH61 present (0.2 mg/g cellulose); for Percent conversion of milled unwashed PCS / Enhancement of hydrolysis of milled unwashed PCS by the presence of GH61 polypeptide: no heterocyclic compound
[3] = system: Trichoderma reesei cellulase composition; assay: Hydrolysis of AVICEL (microcrystalline cellulose) by the T. reesei cellulase composition, with/without GH61 polypeptide or heterocyclic compound; details: for heterocyclic compound effect(no GH61) (ratio of percent conversion with compound to without) / heterocyclic compound effect(no GH61): AVICEL; for heterocyclic compound effect(no GH61) (ratio of percent conversion with compound to without): compound 5 mM, 1, 3 and 7 days; for heterocyclic compound effect(no GH61): compound 10 mM, 1 and 3 days; for Percent conversion of AVICEL: no heterocyclic compound
[4] = molecular target: Trichoderma reesei GH61B polypeptide (Trichoderma reesei, UniProt Q7Z9M7); assay: Effect of ascorbic acid on T. reesei GH61B polypeptide during hydrolysis of AVICEL; details: ascorbic acid 5 mM
[5] = molecular target: Aspergillus fumigatus GH61B polypeptide (Aspergillus fumigatus, UniProt Q4WP32); assay: Effect of ascorbic acid on A. fumigatus GH61B polypeptide during hydrolysis of AVICEL; details: ascorbic acid 5 mM, A. fumigatus GH61B 0.4 or 2 mg per gram cellulose, 1, 3 and 7 days
[6] = system: Penicillium pinophilum GH61A polypeptide; details: AVICEL; ascorbic acid 5 mM; P. pinophilum GH61A 0.4 or 2 mg per gram cellulose; 1, 3 and 7 days
[7] = system: Talaromyces stipitatus GH61A polypeptide; details: AVICEL; ascorbic acid 5 mM; T. stipitatus GH61A 0.4 or 2 mg per gram cellulose; 1, 3 and 7 days
[8] = system: Thielavia terrestris GH61E polypeptide; assay: Effect of ascorbic acid on T. terrestris GH61E polypeptide during hydrolysis of AVICEL; details: ascorbic acid 5 mM, T. terrestris GH61E 0.4 or 2 mg per gram cellulose, 1, 3 and 7 days
[9] = cellulase 2 mg per g cellulose, 1, 3 and 7 days
[10] = compound 10 mM, cellulase 2 mg per g cellulose, especially at day 3

Aspergillus fumigatus GH61B polypeptide, sequence (Q4WP32 22-250): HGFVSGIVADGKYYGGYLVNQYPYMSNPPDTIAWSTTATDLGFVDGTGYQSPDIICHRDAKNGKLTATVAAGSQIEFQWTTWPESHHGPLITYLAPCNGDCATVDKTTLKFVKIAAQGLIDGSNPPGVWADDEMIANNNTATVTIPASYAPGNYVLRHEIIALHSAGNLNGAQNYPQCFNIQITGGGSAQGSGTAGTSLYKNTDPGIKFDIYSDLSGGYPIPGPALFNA

What does the source list for `O=C(CO)c1ccccc1` [2-hydroxyacetophenone]?
heterocyclic compound effect(no GH61) ([1]; compound 5 mM, 1, 3 and 7 days): slightly decreased; heterocyclic compound effect(no GH61) [2, 9]: greater than 1; heterocyclic compound effect(no GH61) (ratio of percent conversion with compound to without) [3]: less than 1; heterocyclic compound effect(no GH61) [3]: significantly decreased the day 3 hydrolysis

`CC1=C(O)C(=O)CO1` [4-hydroxy-5-methyl-3-furanone] was tested. Which “heterocyclic compound effect(no GH61)” value [1, 10] did it give?
The value was under 1.

Which results are given for `O=C1OC(C(O)CO)C(O)=C1O` (stereo not shown) [ascorbic acid, (1,2-dihydroxyethyl)-3,4-dihydroxyfuran-2(5H)-one]?
heterocyclic compound effect(+GH61) ([4]; T. reesei GH61B 2 mg per g cellulose): increased; GH61 effect in the presence of heterocyclic compound ([4]; T. reesei GH61B at high level (2 mg per g cellulose)): greater than 1; heterocyclic compound effect(no GH61) ([1]; compound 5 mM, 1, 3 and 7 days): slightly decreased; GH61 effect in the presence of heterocyclic compound [5]: greater than 1; heterocyclic compound effect(+GH61) [5]: increased; heterocyclic compound effect(no GH61) [2, 9]: greater than 1; GH61 effect in the presence of heterocyclic compound [6]: greater than 1; heterocyclic compound effect(+GH61) [6]: increased; GH61 effect in the presence of heterocyclic compound [7]: greater than 1; heterocyclic compound effect(+GH61) [7]: increased; GH61 effect in the presence of heterocyclic compound [8]: greater than 1; heterocyclic compound effect(+GH61) [8]: increased

Which results are given for `O=C1OC(C(O)CO)C(=O)C1=O` (stereo not shown) [dehydroascorbic acid, [1,2-dihydroxyethyl]furan-2,3,4(5H)-trione]?
heterocyclic compound effect(no GH61) ([1]; compound 5 mM, 1, 3 and 7 days): very slightly decreased; heterocyclic compound effect(no GH61) [1, 10]: < 1; heterocyclic compound effect(no GH61) ([2]; mid to late stages of hydrolysis): greater than 1; heterocyclic compound effect(no GH61) (ratio of percent conversion with compound to without) [3]: very slightly decreased; heterocyclic compound effect(no GH61) [3]: very slightly decreased the day 3 hydrolysis

B1: Thielavia terrestris GH61E polypeptide: GH61E polypeptide having cellulolytic enhancing activity (SEQ ID NO: 8), recombinantly prepared using Trichoderma reesei RutC30 as a host (protein, listed as Thielavia terrestris)
chain: MLANGAIVFLAAALGVSGHYTWPRVNDGADWQQVRKADNWQDNGYVGDVTSPQIRCFQATPSPAPSVLNTTAGSTVTYWANPDVYHPGPVQFYMARVPDGEDINSWNGDGAVWFKVYEDHPTFGAQLTWPSTGKSSFAVPIPPCIKSGYYLLRAEQIGLHVAQSVGGAQFYISCAQLSVTGGGSTEPPNKVAFPGAYSATDPGILINIYYPVPTSYQNPGPAVFSC
What does the source list for B1?
Percent conversion of AVICEL ([3]; 1 day, GH61 present, one experiment, 19.5±0.2% in the absence of GH61): 20.5±0.5%; Percent conversion of AVICEL ([3]; 3 days, GH61 present, one experiment, 27±1% in the absence of GH61): 27±1%; Percent conversion of AVICEL ([3]; 7 days, GH61 present, one experiment, 43±1% in the absence of GH61): 43.0±0.3%

B2: T. aurantiacus GH61A polypeptide: GH61A polypeptide having cellulolytic enhancing activity (SEQ ID NO: 14), recombinantly prepared using Aspergillus oryzae JaL250 as a host (protein, listed as Thermoascus aurantiacus)
chain: MSFSKIIATAGVLASASLVAGHGFVQNIVIDGKYYGGYLVNQYPYMSNPPEVIAWSTTATDLGFVDGTGYQTPDIICHRGAKPGALTAPVSPGGTVELQWTPWPDSHHGPVINYLAPCNGDCSTVDKTQLEFFKIAESGLINDDNPPGIWASDNLIAANNSWTVTIPTTIAPGNYVLRHEIIALHSAQNQDGAQNYPQCINLQVTGGGSDNPAGTLGTALYHDTDPGILINIYQKLSSYIIPGPPLYTG
What does the source list for B2?
Enhancement of hydrolysis of milled washed PCS by the presence of GH61 polypeptide ([1]; 1 day, no heterocyclic compound): 14%; Enhancement of hydrolysis of milled washed PCS by the presence of GH61 polypeptide ([1]; 3 days, no heterocyclic compound): 31%; Enhancement of hydrolysis of milled washed PCS by the presence of GH61 polypeptide ([1]; 7 days, no heterocyclic compound): 31%; Percent conversion of milled washed PCS ([1]; day 1, GH61 present (0.4 mg per g cellulose), cellulase 4 mg per g cellulose, no heterocyclic compound, 37±1% in the absence of GH61): 42±1%; Percent conversion of milled washed PCS ([1]; day 1, cellulase 2 mg per g cellulose, GH61 at 10% (w/w) of the cellulase composition, 24±0.7% in the absence of GH61): 27±0.8%; Percent conversion of milled washed PCS ([1]; day 1, cellulase 2 mg per g cellulose, GH61 at 25% (w/w) of the cellulase composition, 24±0.7% in the absence of GH61): 27±0.8%; Percent conversion of milled washed PCS ([1]; day 1, cellulase 2 mg per g cellulose, GH61 at 50% (w/w) of the cellulase composition, 24±0.7% in the absence of GH61): 27±0.8%; Percent conversion of milled washed PCS ([1]; day 3, GH61 present (0.4 mg per g cellulose), cellulase 4 mg per g cellulose, no heterocyclic compound, 55±1% in the absence of GH61): 72±1%; Percent conversion of milled washed PCS ([1]; day 3, cellulase 2 mg per g cellulose, GH61 at 10% (w/w) of the cellulase composition, 41±2% in the absence of GH61): 55±3%; Percent conversion of milled washed PCS ([1]; day 3, cellulase 2 mg per g cellulose, GH61 at 25% (w/w) of the cellulase composition, 41±2% in the absence of GH61): 57±0.5%; Percent conversion of milled washed PCS ([1]; day 3, cellulase 2 mg per g cellulose, GH61 at 50% (w/w) of the cellulase composition, 41±2% in the absence of GH61): 59±2%; Percent conversion of milled washed PCS ([1]; day 7, GH61 present (0.4 mg per g cellulose), cellulase 4 mg per g cellulose, no heterocyclic compound, 67±0.2% in the absence of GH61): 88±2%; Percent conversion of milled unwashed PCS ([2]; 1 day, cellulase 2 mg per g cellulose, 18.7±0.1% in the absence of GH61): 22.2±0.1%; Enhancement of hydrolysis of milled unwashed PCS by the presence of GH61 polypeptide ([2]; 1 day): 19%; Percent conversion of milled unwashed PCS ([2]; 3 days, cellulase 2 mg per g cellulose, 28.2±0.3% in the absence of GH61): 34.3±0.3%; Enhancement of hydrolysis of milled unwashed PCS by the presence of GH61 polypeptide ([2]; 3 days): 21%; Percent conversion of milled unwashed PCS ([2]; 7 days, cellulase 2 mg per g cellulose, 36.9±0.3% in the absence of GH61): 44.0±0.2%; Enhancement of hydrolysis of milled unwashed PCS by the presence of GH61 polypeptide ([2]; 7 days): 19%; Percent conversion of AVICEL ([3]; 1 day, GH61 polypeptide present (0.4 mg per g cellulose), 16±1% in the absence of GH61): 16±1%; Percent conversion of AVICEL ([3]; 3 days, GH61 polypeptide present (0.4 mg per g cellulose), 31±4% in the absence of GH61): 30±4%; Percent conversion of AVICEL ([3]; 7 days, GH61 polypeptide present (0.4 mg per g cellulose), 45±3% in the absence of GH61): 45±4%

B3: Trichoderma reesei GH61B polypeptide: GH61B polypeptide having cellulolytic enhancing activity (SEQ ID NO: 16), recombinantly prepared using Aspergillus oryzae JaL250 as a host (protein, listed as Trichoderma reesei)
chain: MKSCAILAALGCLAGSVLGHGQVQNFTINGQYNQGFILDYYYQKQNTGHFPNVAGWYAEDLDLGFISPDQYTTPDIVCHKNAAPGAISATAAAGSNIVFQWGPGVWPHPYGPIVTYVVECSGSCTTVNKNNLRWVKIQEAGINYNTQVWAQQDLINQGNKWTVKIPSSLRPGNYVFRHELLAAHGASSANGMQNYPQCVNIAVTGSGTKALPAGTPATQLYKPTDPGILFNPYTTITSYTIPGPALWQG
B3 was tested. Which “Percent conversion of AVICEL” value ([3]; 1 day, GH61 present, one experiment, 13.7±0.6% in the absence of GH61) did it give?
Its value is 13.5±0.4%.

What about the “Percent conversion of AVICEL” value ([3]; 3 days, GH61 present, one experiment, 28.6±0.4% in the absence of GH61) of the same molecule?
The value was 29±2%.

What about the “Percent conversion of AVICEL” value ([3]; 7 days, GH61 present, one experiment, 44±1% in the absence of GH61) of the same molecule?
The value was 44±2%.
